Measurements as given in US20100041597A1, “PEPTIDES TARGETED TO PROTEIN KINASE C ISOFORMS AND USES THEREOF” (priority 2005, published 2010).
Entries after “also recorded” stand apart in the source; their conditions may differ.

How the values were obtained:
PKC-α = PKC-α (Homo sapiens, UniProt P17252); test: Competitive binding assay using cell extracts (Western blot); design: key to Affinity for PKC isoform α: —: no detectable affinity; Low to very low affinity at 10X or 20X or both PRE concentrations in at least one cell line in the cell extract assay; Low affinity in purified isoform assay.; Moderate affinity at 10X or 20X or both PRE concentrations in at least one cell line in the cell extract assay.; High affinity at 10X or 20X or both PRE concentrations in at least one cell line in the cell extract assay; High affinity in purified isoform assay; conditions: for Affinity for PKC isoform α: Cell extract, PRE at 10X, 20X antibody concentration, Table 20
Method: Binding efficiency and specificity of the peptides PRE 2, 3, 4, 5, 6, 7, 8, 9, 10, 11, 12 and 13 (see Table 3) was also tested using cytoplasmic extracts from different cell lines expressing appropriate PKC isoforms as described for Example 1. Briefly, the protein cytoplasmic extracts were separated by electrophoresis and transferred onto nitrocellulose membranes by standard Western blotting procedures. The bands on the Western blots were detected with matching primary antibodies and alkaline phosphatase conjugated secondary antibody. The bands were then scanned and the relative density measurements obtained.
This procedure to assess the binding characteristics of the PREs is based on competition binding of the PRE with the primary anti-isoform PKC specific antibodies. The lower the measured band density, the greater the binding of the PRE to the PKC isoform. The PREs were added at 10 and 20 times (10×, 20×) the primary antibody concentration, according to classical competition between antigenic peptide and primary antibody. The following cell lines (obtained from the ATCC) were used: H661—NCI human lung carcinoma NSCLC; MDAMB231—human highly invasive breast cancer cell line from pleural effusion; LS180—human colon adenocarcinoma; LnCAP—human prostate adenocarcinoma; CCD16Lu—human lung fibroblasts; Du145—human prostate carcinoma brain metastasis, and T24—human bladder carcinoma.
In these cases, the 20× band density figures relative to control and 10× values were reliable.

PKC-δ = PKC-δ (Homo sapiens, UniProt Q05655); test: ELISA-based competitive binding assay with purified PKC isoform; design: key to Affinity for PKC isoform δ: —: no detectable affinity; Low to very low affinity at 10X or 20X or both PRE concentrations in at least one cell line in the cell extract assay; Low affinity in purified isoform assay.; Moderate affinity at 10X or 20X or both PRE concentrations in at least one cell line in the cell extract assay.; High affinity at 10X or 20X or both PRE concentrations in at least one cell line in the cell extract assay; High affinity in purified isoform assay; conditions: for Affinity for PKC isoform δ: Purified isoform, Table 20; for calculated binding capacity (100-% n) after subtraction of the DMSO apparent binding capacity / inhibition at 50 µM / inhibition at 100 µM / inhibition at 200 µM: purified PKC-δ, may be overestimated (longer colour development); for targeting of / affinity for PKC-δ: purified isoform, Tables 14-19; for inhibition at 50 µM / inhibition at 100 µM / inhibition at 200 µM: read-out: calculated binding capacity (100-% n) after subtraction of the DMSO apparent binding capacity
Sequence of PKC-δ (Q05655 whole entry, canonical isoform): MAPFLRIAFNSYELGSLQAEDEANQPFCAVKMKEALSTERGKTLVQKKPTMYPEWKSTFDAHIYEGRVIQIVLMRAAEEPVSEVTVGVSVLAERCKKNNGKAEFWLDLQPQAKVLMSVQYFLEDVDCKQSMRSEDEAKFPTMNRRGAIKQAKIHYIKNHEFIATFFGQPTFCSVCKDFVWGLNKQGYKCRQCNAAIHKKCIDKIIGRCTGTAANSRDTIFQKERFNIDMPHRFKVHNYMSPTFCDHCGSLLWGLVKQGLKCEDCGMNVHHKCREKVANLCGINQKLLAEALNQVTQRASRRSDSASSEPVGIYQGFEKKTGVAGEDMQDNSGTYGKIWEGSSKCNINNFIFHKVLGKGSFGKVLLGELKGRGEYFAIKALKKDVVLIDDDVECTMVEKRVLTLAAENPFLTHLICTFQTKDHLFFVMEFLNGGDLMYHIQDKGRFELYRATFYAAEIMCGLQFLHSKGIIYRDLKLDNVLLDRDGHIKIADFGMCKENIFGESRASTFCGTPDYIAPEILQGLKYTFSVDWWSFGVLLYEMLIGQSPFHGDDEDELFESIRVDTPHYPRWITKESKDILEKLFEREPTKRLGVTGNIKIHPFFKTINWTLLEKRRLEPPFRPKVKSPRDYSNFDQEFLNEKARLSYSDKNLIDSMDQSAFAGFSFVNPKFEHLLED
Method: Peptides PRE 1, 2, 3, 4, 5, 6, 7, 8, 9, 10, 11, 12 and 13 (see Table 3) were tested for their ability to interfere with binding of PKC isoform-specific antibodies to their target PKC isoforms using a competitive binding assay and purified PKC isoforms.
Procedure: Competitive binding was assessed using a 96 well plate ELISA-based assay as described below.
Greiner 96 well ELISA plates were coated with the appropriate PKC isoform diluted in PBSN (PBS with Calcium/Magnesium+0.05% Sodium azide w/w). 50 μL/well at 250 ng/mL was used. Control wells contained PBSN only. Plates were incubated overnight at 4° C.
The plates were washed 3 times with 200 μL of dH2O per well, then 100 μL of blocking solution was added per well and the plate incubated for 1 h at 37° C. The washing steps with dH2O were repeated and 50 μL of the appropriate PRE solution (PRE stock solution [20 mM in DMSO] diluted in PBSN) was added and the plate incubated for 1 h at room temperature.
After incubation, 5 μL of 1.1:400 anti-PKC (isoform specific antibody) was added per well (to provide a final concentration of 1:4000). For PKC-epsilon, 1.1:800 dilution was used and for PKC-zeta a 1.1:100 dilution was used due to high and low binding affinity, respectively. The plates were then incubated 1 h at room temperature, followed by washing with dH2O as described above.
50 μL of 1:1000 dilution of Alkaline Phosphatase (AP) conjugated antibody (anti-rabbit for all except zeta, which was anti-goat) was then added and the plate incubated for 1 h at room temperature. Washing with dH2O was then repeated. Finally, 100 μL of pNPP solution in pNPP buffer (2 mM MgCl2, 100 mM Sodium bicarbonate in water, pH 9.8) was added to all wells and incubated for 8 minutes for α, βI, βII ε, and ζ, or for 15-20 mins for […] (until sufficient coloration is observed). The reaction was stopped by addition of Stop solution (2N NaOH) and the absorbance at 405 nm was read on a Galaxy Plate reader.
Controls were PKC without PRE; blank controls, and controls containing the final concentrations of DMSO used for solubilizing the PREs. The non-specific binding capacity related to DMSO was also measured.
The antibodies used were as follows: anti-PKC α (Cat. No. SC-208); anti-PKC βI (Cat. No. SC-209); anti-PKC βII (Cat. No. SC-210); anti-PKC δ (Cat. No. SC-213); anti-PKC ε (Cat. No. SC-214); anti-PKC ζ (Cat. No. SC-216-G) (all from Santa Cruz Biotechnology, Inc.). The AP-conjugated antibodies were obtained from Jackson Immuno Research Laboratories (West Grove, Pa.).
Calculations: The OD values measured at 405 nm represent the free PKC coated per well.
OD405 PKC alone−Blank OD405 of each sample=OD405 coated isoform
(OD405 of sample X/OD405 coated isoform)×100=% n that represents the percentage of X binding compared to control.
100-% n measures the relative binding capacity of X towards the tested isoform.
The apparent binding capacity of the DMSO samples was then subtracted from X binding capacity.
All measurements were made in triplicate and the values in the table represent the averaged calculated binding capacity values after subtraction of the DMSO apparent binding capacity (averaged from 12 values, respectively 10.80, 11.20 and 16.40 corresponding to the concentrations of DMSO used to dilute the […] at 200, 100 and 50 μM respectively). The results allow for quantitative comparison of the binding capacity of each PRE towards an individual isoform within each table, but not among isoforms due to differences in sensitivity of the specific antibodies toward the secondary antibody. This applies particularly to PKC-delta. As noted above, the colour development duration was increased 2-3 times and, as a result, the OD405 measurements may be overestimated for this isoform.

| Affinity for PKC isoform α (PKC-α) | Affinity for PKC isoform δ (PKC-δ) | calculated binding capacity (100-% n) after subtraction of the DMSO apparent binding capacity (PKC-δ; PRE 200 μM) | targeting of / affinity for PKC-δ (PKC-δ) | affinity for PKC-α (PKC-α; cell extracts) | inhibition at 50 µM (PKC-δ; PRE 50 μM) [%] | inhibition at 100 µM (PKC-δ; PRE 100 μM) [%] | inhibition at 200 µM (PKC-δ; PRE 200 μM) [%] | calculated binding capacity (100-% n) after subtraction of the DMSO apparent binding capacity (PKC-δ; PRE 50 μM) | calculated binding capacity (100-% n) after subtraction of the DMSO apparent binding capacity (PKC-δ; PRE 100 μM) | Substance |
| --- | --- | --- | --- | --- | --- | --- | --- | --- | --- | --- |
| — | L |  |  |  |  |  |  |  |  | Ac-KDAQNLI-NH2 [PRE 12] |
| H/L | — | 9.47 |  |  |  |  |  |  |  | Ac-ISIGILNQADK-NH2 [PRE 10] |
| H/L | L |  |  |  |  |  |  |  |  | Ac-KDANQLIGISI-NH2 [PRE 6] |
| H | H |  | targeted most strongly |  |  |  |  |  |  | RRKKGGKDFVVKR [PRE 1] |
| L | — |  |  |  |  |  |  |  |  | Ac-ISIGILQNADK-NH2 [PRE 7] |
| M/L | — |  |  |  |  |  |  |  |  | ILEDKGGDAQNLIGISI [PRE 8] |
| H/L | H |  | targeted most strongly |  |  |  |  |  |  | Ac-RDAQNLIGISI-NH2 [PRE 11] |
| M | L |  |  |  | 0.2 | 0 | 4.31 |  |  | Ac-AKGIQEVKGGKDAQNLIGISI-NH2 [PRE 5] |
| H | H |  | targeted most strongly |  | 48.3 | 56 | 57 |  |  | Ac-AKGIQEVKGGDAQNLIGISI-NH2 [PRE 3] |
| M/L | L | 9.95 |  |  |  |  |  | 16.23 | 19.27 | Ac-isigilgnadk-NH2 [PRE 9] |
| M/H | L |  |  |  |  |  |  |  |  | Ac-RDAQNLI-NH2 [PRE 13] |

| Substance | Affinity for PKC isoform α (PKC-α) | Affinity for PKC isoform δ (PKC-δ) | calculated binding capacity (100-% n) after subtraction of the DMSO apparent binding capacity (PKC-δ; PRE 200 μM) | targeting of / affinity for PKC-δ (PKC-δ) | affinity for PKC-α (PKC-α; cell extracts) | inhibition at 50 µM (PKC-δ; PRE 50 μM) [%] | inhibition at 100 µM (PKC-δ; PRE 100 μM) [%] | inhibition at 200 µM (PKC-δ; PRE 200 μM) [%] | calculated binding capacity (100-% n) after subtraction of the DMSO apparent binding capacity (PKC-δ; PRE 50 μM) | calculated binding capacity (100-% n) after subtraction of the DMSO apparent binding capacity (PKC-δ; PRE 100 μM) |
| --- | --- | --- | --- | --- | --- | --- | --- | --- | --- | --- |
| Ac-KDAQNLIGISI-NH2 [PRE 4, Ac-KDAQNLIGISI-NH2] | H | H |  | targeted most strongly; also recorded: showed an affinity for PKC-6 | strong affinity for PKC-α | 29.2 | 30.7 | 17.3 |  |  |
